Data on 3 substances can be found in article PMC6978347.

In test [1] the target is polymerization-deficient p62^1–102 (D69A/D73A) (human) (UniProt Q13501). As to the kind of experiment: ITC; VP-ITC, 25 °C, 10 mM HEPES pH 7.5, 150 mM NaCl; p62 D69A/D73A in the cell (5–20 μM), partner PB1 domain in the syringe (25–100 μM); one-site model; mean of three measurements. Background: ITC needs no label: the signal is the heat of the interaction.
The next test deals with p62 PB1 (Homo sapiens) (UniProt Q13501). The conditions noted are these: cited from earlier work.

The term Kd denotes the equilibrium constant for the complex coming apart. With “NBR1^1–85 (human NBR1–PB1) (from UniProt Q14596 1-85) (domain or fragment)”, the dissociation constant Kd in test [1] was found to be 12.6 nM. The substance “PKCζ^11–101 (pKCζ–PB1) (from UniProt Q05513 11-101) (domain or fragment)” returned a Kd in test [1] of 8.9 nM. For p62 PB1 (from UniProt Q13501), the Kd with p62 PB1 (Homo sapiens) is 6 nM.
